Results reported in patent US20080118529A1 (published 2008).
Several values for one entry are separate records, joined by “and”; a condition that tells them apart may be missing. Equal entries are not always repeated.

B1: Tissue-type plasminogen activator (tPA, Actilyse, Boehringer-Ingelheim) (enzyme, human, UniProt P00750 36-562, looked up)
chain: SYQVICRDEKTQMIYQQHQSWLRPVLRSNRVEYCWCNSGRAQCHSVPVKSCSEPRCFNGGTCQQALYFSDFVCQCPEGFAGKCCEIDTRATCYEDQGISYRGTWSTAESGAECTNWNSSALAQKPYSGRRPDAIRLGLGNHNYCRNPDRDSKPWCYVFKAGKYSSEFCSTPACSEGNSDCYFGNGSAYRGTHSLTESGASCLPWNSMILIGKVYTAQNPSAQALGLGKHNYCRNPDGDAKPWCHVLKNRRLTWEYCDVPSCSTCGLRQYSQPQFRIKGGLFADIASHPWQAAIFAKHRRSPGERFLCGGILISSCWILSAAHCFQERFPPHHLTVILGRTYRVVPGEEEQKFEVEKYIVHKEFDDDTYDNDIALLQLKSDSSRCAQESSVVRTVCLPPADLQLPDWTECELSGYGKHEALSPFYSERLKEAHVRLYPSSRCTSQHLLNRTVTDNMLCAGDTRSGGPQANLHDACQGDSGGPLVCLNDGRMTLVGIISWGLGCGQKDVPGVYTKVTNYLDWIRDNMRP
notes: also called full-length tPA; recombinant human tPA

Experiments:
[1] = biological target: T1, human factor XII from plasma (Calbiochem, #233490) (human, UniProt P00748 20-615); test: ELISA: factor XII coated, concentration series of β2GPI, detection with monoclonal antibody 2B2
T1 construct: also called FXII
T1 sequence (looked up): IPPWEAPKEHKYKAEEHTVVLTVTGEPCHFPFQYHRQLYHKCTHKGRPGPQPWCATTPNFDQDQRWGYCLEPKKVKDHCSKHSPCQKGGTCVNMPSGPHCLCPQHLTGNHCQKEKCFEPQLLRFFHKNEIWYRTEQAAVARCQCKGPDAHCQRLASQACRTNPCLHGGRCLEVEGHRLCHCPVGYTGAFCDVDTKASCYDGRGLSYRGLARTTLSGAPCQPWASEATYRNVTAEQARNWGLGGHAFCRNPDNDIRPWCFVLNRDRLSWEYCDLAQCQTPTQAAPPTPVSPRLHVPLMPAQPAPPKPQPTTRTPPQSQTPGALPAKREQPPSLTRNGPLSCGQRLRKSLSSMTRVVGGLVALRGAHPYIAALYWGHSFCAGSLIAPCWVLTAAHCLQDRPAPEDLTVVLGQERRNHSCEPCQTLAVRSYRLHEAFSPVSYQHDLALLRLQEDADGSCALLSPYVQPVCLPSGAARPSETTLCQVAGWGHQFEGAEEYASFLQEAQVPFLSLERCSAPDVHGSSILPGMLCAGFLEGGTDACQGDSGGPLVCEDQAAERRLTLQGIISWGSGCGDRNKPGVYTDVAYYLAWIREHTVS

[2] = biological target: B1; test: ELISA: tPA coated, concentration series of β2GPI, detection with monoclonal antibody 2B2
albumin (ICN, 160069) = biological target: T2, albumin (ICN, 160069) (bovine, UniProt P02769 25-607); test: ELISA; protein incubated with DXS500k or buffer immobilized, overlaid with tPA in 10 mM εACA
T2 construct: also called bovine serum albumin (ICN, #160069, fraction V)
T2 sequence (P02769 25-607 limits assumed): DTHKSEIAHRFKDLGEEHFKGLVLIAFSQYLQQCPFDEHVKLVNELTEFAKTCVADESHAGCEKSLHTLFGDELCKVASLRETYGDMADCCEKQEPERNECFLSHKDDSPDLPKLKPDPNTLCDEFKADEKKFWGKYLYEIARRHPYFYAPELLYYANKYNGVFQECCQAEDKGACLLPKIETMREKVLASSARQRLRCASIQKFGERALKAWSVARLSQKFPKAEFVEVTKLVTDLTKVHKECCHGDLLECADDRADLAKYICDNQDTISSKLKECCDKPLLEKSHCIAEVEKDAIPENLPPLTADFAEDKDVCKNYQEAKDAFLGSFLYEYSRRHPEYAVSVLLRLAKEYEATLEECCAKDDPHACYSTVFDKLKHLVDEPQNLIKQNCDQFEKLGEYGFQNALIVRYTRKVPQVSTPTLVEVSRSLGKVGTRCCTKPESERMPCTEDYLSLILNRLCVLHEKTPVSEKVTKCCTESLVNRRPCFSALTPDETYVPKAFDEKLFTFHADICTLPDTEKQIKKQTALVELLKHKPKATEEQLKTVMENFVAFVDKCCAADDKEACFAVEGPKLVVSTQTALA

[3] = biological target: T1, human factor XII from plasma …; test: ELISA; factor XII incubated with DXS500k or buffer immobilized, overlaid with tPA in 10 mM εACA

Row | Binder | Kd [1] | Kd [2] | factor of increase in tPA binding (protein exposed to DXS500k against protein in buffer only) (albumin (ICN, 160069)) [fold] | binding result [3]
1 | recombinant human β2-glycoprotein I (made in insect cells) (other, UniProt P02749 20-345, looked up, also called recombinant β2GPI; rec. β2GPI) GRTCPKPDDLPFSTVVPLKTFYEPGEEITYSCKPGYVSRGGMRKFICPLTGLWPINTLKCTPRVCPFAGILENGAVRYTTFEYPNTISFSCNTGFYLNGADSAKCTEEGKWSPELPVCAPIICPPPSIPTFATLRVYKPSAGNNSLYRDTAVFECLPQHAMFGNDTITCTTHGNWTKLPECREVKCPFPSRPDNGFVNYPAKPTLYYKDKATFGCHDGYSLDGPEEIECTKLGNWSAMPSCKASCKVPVKKATVVYQGERVKIQEKFKNGMLHGDKVSFFCKNKEKKCSYTEDAQCIDGTIEVPKCFKEHSSLAFWKTDASDVKPC | 0.9 µg/mL and 20 nM | 2.3 µg/mL and 51 nM | – | –
2 | B1 | – | – | 1.3 | binds
